# Test results as given in paper PMC10770727.
# What was measured:
# [1] = biological target: human recombinant S100A10 (human) (UniProt P60903); assay: SPR; bovine CRT or human recombinant S100A10 amine-coupled to CM5 chips (1000 to 1300 RU), BIACORE 3000; Glu-plasminogen (0-1 uM) or 0.5 uM bovine serum albumin flowed at 50 ul/min; 25 °C; HBS-ET (10 mM Hepes pH 7.4, 150 mM NaCl, 3 mM EDTA, 0.05% Tween-20); apparent KD from steady-state affinity model
# [2] = biological target: bovine liver calreticulin (bovine) (UniProt P52193); assay: as above
# Chain of UniProt P52193 (P52193 18-417): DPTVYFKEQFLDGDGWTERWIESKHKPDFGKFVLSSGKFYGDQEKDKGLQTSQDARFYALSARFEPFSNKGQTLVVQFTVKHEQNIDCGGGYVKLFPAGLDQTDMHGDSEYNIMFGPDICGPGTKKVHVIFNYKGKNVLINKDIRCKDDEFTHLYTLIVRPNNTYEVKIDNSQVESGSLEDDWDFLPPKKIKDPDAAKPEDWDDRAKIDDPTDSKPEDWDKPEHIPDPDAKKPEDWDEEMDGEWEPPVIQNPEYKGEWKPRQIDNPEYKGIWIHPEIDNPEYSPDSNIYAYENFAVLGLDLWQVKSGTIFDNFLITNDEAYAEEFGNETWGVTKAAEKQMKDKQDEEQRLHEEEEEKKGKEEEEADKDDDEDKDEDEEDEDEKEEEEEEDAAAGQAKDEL
# [3] = biological target: recombinant human calreticulin (amino acids 18 to 417, N-terminal His-tag) (human) (UniProt P27797)
# Chain of UniProt P27797 (P27797 18-417): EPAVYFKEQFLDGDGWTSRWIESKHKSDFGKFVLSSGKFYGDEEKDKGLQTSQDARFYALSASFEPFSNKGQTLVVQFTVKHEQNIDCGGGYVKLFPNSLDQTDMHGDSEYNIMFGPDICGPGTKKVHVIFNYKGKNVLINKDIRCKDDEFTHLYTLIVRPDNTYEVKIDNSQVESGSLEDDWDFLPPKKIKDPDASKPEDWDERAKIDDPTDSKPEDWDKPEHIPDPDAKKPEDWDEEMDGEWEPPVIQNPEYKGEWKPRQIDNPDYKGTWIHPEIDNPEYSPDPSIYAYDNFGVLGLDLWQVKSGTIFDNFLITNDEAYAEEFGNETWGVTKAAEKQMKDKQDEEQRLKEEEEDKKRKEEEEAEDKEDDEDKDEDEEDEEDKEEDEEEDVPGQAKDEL
# Chain of UniProt P60903 (P60903 whole entry): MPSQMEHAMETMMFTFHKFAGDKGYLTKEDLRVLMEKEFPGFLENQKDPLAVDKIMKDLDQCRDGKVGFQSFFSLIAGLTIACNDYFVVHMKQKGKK
substance,measurement,setting,value
human Glu-plasminogen (natural protein),Kd,[1],500 nM
same,Kd,[2],1900 nM
same,inhibition by 10 mM ε-ACA of the stimulation of tPA-dependent plasminogen activation by 0.5 μM recombinant human CRT,[3],80%
